Measured values reported in paper PMC5700927, “Heme enables proper positioning of Drosha and DGCR8 on primary microRNAs” (Nature Communications, 2017).

Key:
[1] = target: the molecule itself; test: SEC-MALS; isolated DGCR8; Superdex 200 Increase 10/300; 20 mM Tris pH 8.0, 750 mM NaCl, 1 mM TCEP, 10% glycerol; wild-type sample heme-deficient (Apo); heme-saturated samples inconclusive and not reported
[2] = target: the molecule itself; test: AUC; sedimentation velocity of isolated DGCR8; 0.1-1 mg/mL; 20 mM Tris pH 8.0, 500 mM NaCl, 1 mM TCEP; 142,000 x g, about 16 h; wild-type sample heme-saturated
[3] = target: the molecule itself; test: AUC; sedimentation velocity of purified co-expressed Drosha/DGCR8 complex; 0.1-1 mg/mL; 20 mM Tris pH 8.0, 500 mM NaCl, 1 mM TCEP; 72,400 x g, about 16 h
[4] = target: the molecule itself; test: SEC-MALS; purified co-expressed Drosha/DGCR8 complex; Superdex 200 Increase 10/300; 20 mM Tris pH 8.0, 750 mM NaCl, 1 mM TCEP, 10% glycerol
[5] = target: T1, Drosha (residues 353-1372) (human, UniProt Q9NRR4 353-1372); test: as above; details: both partners purified
T1 construct: Drosha (RNase III), human, residues 353-1372 (CED, two RIIID domains, dsRBD); also called the Drosha chain of MP^Heme, MP^Apo, MP^C352S, MP^ΔHBR and MP^CTT
T1 sequence (looked up): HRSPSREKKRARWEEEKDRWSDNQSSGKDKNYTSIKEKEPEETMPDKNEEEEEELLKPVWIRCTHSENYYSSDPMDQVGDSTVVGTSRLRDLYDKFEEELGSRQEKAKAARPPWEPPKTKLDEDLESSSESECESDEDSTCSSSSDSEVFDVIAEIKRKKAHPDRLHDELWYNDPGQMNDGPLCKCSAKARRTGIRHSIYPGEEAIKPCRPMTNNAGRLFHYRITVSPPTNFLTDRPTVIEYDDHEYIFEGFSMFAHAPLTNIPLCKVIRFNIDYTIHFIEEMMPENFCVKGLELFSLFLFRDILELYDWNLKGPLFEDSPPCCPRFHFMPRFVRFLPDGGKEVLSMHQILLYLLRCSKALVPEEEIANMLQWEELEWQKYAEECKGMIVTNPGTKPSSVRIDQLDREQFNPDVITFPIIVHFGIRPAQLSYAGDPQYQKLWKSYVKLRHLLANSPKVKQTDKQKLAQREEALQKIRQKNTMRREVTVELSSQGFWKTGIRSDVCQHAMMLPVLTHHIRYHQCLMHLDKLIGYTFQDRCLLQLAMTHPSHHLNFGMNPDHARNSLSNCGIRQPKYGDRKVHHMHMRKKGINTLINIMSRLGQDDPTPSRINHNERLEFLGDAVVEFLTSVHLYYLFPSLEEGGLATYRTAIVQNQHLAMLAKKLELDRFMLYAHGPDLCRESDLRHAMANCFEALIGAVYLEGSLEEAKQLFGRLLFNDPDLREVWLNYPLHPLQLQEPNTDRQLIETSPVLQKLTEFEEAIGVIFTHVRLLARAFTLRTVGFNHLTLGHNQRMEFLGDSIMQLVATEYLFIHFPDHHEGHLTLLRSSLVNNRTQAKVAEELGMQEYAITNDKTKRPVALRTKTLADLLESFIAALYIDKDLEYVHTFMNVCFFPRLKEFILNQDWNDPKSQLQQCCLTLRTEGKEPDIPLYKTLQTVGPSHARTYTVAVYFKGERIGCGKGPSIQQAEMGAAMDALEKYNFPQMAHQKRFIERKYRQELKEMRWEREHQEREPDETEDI

Binder	stoichiometry N [1]	stoichiometry N [2]	stoichiometry N [3]	further results
DGCR8 (residues 223-751), isolated, wild type (domain or fragment, human, UniProt Q8WYQ5 223-751, looked up, DGCR8, human, residues 223-751 (HBR, two dsRBDs, C-terminal tail); also called DGCR8^Heme; DGCR8^Apo; source: E. coli BL21 (DE3) Rosetta, pET21, purified (Ni-NTA, cation exchange, size exclusion); 5 uM hemin Cl in the media for heme-saturated protein) AIVQRDRVDEEALNFPYEDDFDNDVDALLEEGLCAPKKRRTEEKYGGDSDHPSDGETSVQPMMTKIKTVLKSRGRPPTEPLPDGWIMTFHNSGVPVYLHRESRVVTWSRPYFLGTGSIRKHDPPLSSIPCLHYKKMKDNEEREQSSDLTPSGDVSPVKPLSRSAELEFPLDEPDSMGADPGPPDEKDPLGAEAAPGALGQVKAKVEVCKDESVDLEEFRSYLEKRFDFEQVTVKKFRTWAERRQFNREMKRKQAESERPILPANQKLITLSVQDAPTKKEFVINPNGKSEVCILHEYMQRVLKVRPVYNFFECENPSEPFGASVTIDGVTYGSGTASSKKLAKNKAARATLEILIPDFVKQTSEEKPKDSEELEYFNHISIEDSRVYELTSKAGLLSPYQILHECLKRNHGMGDTSIKFEVVPGKNQKSEYVMACGKHTVRGWCKNKRVGKQLASQKILQLLHPHVKNWGSLLRMYGRESSKMVKQETSDKSVIELQQYAKKNKPNLHILSKLQEEMKRLAEEREETRK	2	2	–	–
DGCR8 (residues 223-751), wild type, co-expressed with Drosha (domain or fragment, human, UniProt Q8WYQ5 223-751, looked up, DGCR8, human, residues 223-751; Two copies per Drosha in the complex (heterotrimer); Heme-saturated in MP^Heme, heme-deficient in MP^Apo; also called DGCR8^Heme; DGCR8^Apo; source: MP^Apo separated from MP^Heme by repeated ion exchange) AIVQRDRVDEEALNFPYEDDFDNDVDALLEEGLCAPKKRRTEEKYGGDSDHPSDGETSVQPMMTKIKTVLKSRGRPPTEPLPDGWIMTFHNSGVPVYLHRESRVVTWSRPYFLGTGSIRKHDPPLSSIPCLHYKKMKDNEEREQSSDLTPSGDVSPVKPLSRSAELEFPLDEPDSMGADPGPPDEKDPLGAEAAPGALGQVKAKVEVCKDESVDLEEFRSYLEKRFDFEQVTVKKFRTWAERRQFNREMKRKQAESERPILPANQKLITLSVQDAPTKKEFVINPNGKSEVCILHEYMQRVLKVRPVYNFFECENPSEPFGASVTIDGVTYGSGTASSKKLAKNKAARATLEILIPDFVKQTSEEKPKDSEELEYFNHISIEDSRVYELTSKAGLLSPYQILHECLKRNHGMGDTSIKFEVVPGKNQKSEYVMACGKHTVRGWCKNKRVGKQLASQKILQLLHPHVKNWGSLLRMYGRESSKMVKQETSDKSVIELQQYAKKNKPNLHILSKLQEEMKRLAEEREETRK	–	–	2	–
DGCR8 (residues 223-751) C352S, isolated (domain or fragment, human, UniProt Q8WYQ5 223-751, looked up, also called DGCR8^C352S; source: E. coli BL21 (DE3) Rosetta, pET21, purified (Ni-NTA, cation exchange, size exclusion)) AIVQRDRVDEEALNFPYEDDFDNDVDALLEEGLCAPKKRRTEEKYGGDSDHPSDGETSVQPMMTKIKTVLKSRGRPPTEPLPDGWIMTFHNSGVPVYLHRESRVVTWSRPYFLGTGSIRKHDPPLSSIPSLHYKKMKDNEEREQSSDLTPSGDVSPVKPLSRSAELEFPLDEPDSMGADPGPPDEKDPLGAEAAPGALGQVKAKVEVCKDESVDLEEFRSYLEKRFDFEQVTVKKFRTWAERRQFNREMKRKQAESERPILPANQKLITLSVQDAPTKKEFVINPNGKSEVCILHEYMQRVLKVRPVYNFFECENPSEPFGASVTIDGVTYGSGTASSKKLAKNKAARATLEILIPDFVKQTSEEKPKDSEELEYFNHISIEDSRVYELTSKAGLLSPYQILHECLKRNHGMGDTSIKFEVVPGKNQKSEYVMACGKHTVRGWCKNKRVGKQLASQKILQLLHPHVKNWGSLLRMYGRESSKMVKQETSDKSVIELQQYAKKNKPNLHILSKLQEEMKRLAEEREETRK	2	2	–	–
DGCR8 (residues 223-751) C352S, co-expressed with Drosha (domain or fragment, human, UniProt Q8WYQ5 223-751, looked up, also called DGCR8^C352S; the DGCR8 chain of MP^C352S) AIVQRDRVDEEALNFPYEDDFDNDVDALLEEGLCAPKKRRTEEKYGGDSDHPSDGETSVQPMMTKIKTVLKSRGRPPTEPLPDGWIMTFHNSGVPVYLHRESRVVTWSRPYFLGTGSIRKHDPPLSSIPSLHYKKMKDNEEREQSSDLTPSGDVSPVKPLSRSAELEFPLDEPDSMGADPGPPDEKDPLGAEAAPGALGQVKAKVEVCKDESVDLEEFRSYLEKRFDFEQVTVKKFRTWAERRQFNREMKRKQAESERPILPANQKLITLSVQDAPTKKEFVINPNGKSEVCILHEYMQRVLKVRPVYNFFECENPSEPFGASVTIDGVTYGSGTASSKKLAKNKAARATLEILIPDFVKQTSEEKPKDSEELEYFNHISIEDSRVYELTSKAGLLSPYQILHECLKRNHGMGDTSIKFEVVPGKNQKSEYVMACGKHTVRGWCKNKRVGKQLASQKILQLLHPHVKNWGSLLRMYGRESSKMVKQETSDKSVIELQQYAKKNKPNLHILSKLQEEMKRLAEEREETRK	–	–	2	stoichiometry N [4]: 2
DGCR8^ΔHBR (residues 489-751), co-expressed with Drosha (domain or fragment, human, UniProt Q8WYQ5 489-751, looked up, DGCR8, human, residues 489-751 (tandem dsRBDs and C-terminal tail, no HBR); One copy per Drosha in MP^ΔHBR; also called DGCR8 lacking the HBR; the DGCR8 chain of MP^ΔHBR) LITLSVQDAPTKKEFVINPNGKSEVCILHEYMQRVLKVRPVYNFFECENPSEPFGASVTIDGVTYGSGTASSKKLAKNKAARATLEILIPDFVKQTSEEKPKDSEELEYFNHISIEDSRVYELTSKAGLLSPYQILHECLKRNHGMGDTSIKFEVVPGKNQKSEYVMACGKHTVRGWCKNKRVGKQLASQKILQLLHPHVKNWGSLLRMYGRESSKMVKQETSDKSVIELQQYAKKNKPNLHILSKLQEEMKRLAEEREETRK	–	–	–	stoichiometry N [5]: 1
